The target in test [1] is T1, FimD usher, full-length (undigested), with C-terminal Strep-tag II (Escherichia coli, UniProt P30130 46-878).
T1 sequence: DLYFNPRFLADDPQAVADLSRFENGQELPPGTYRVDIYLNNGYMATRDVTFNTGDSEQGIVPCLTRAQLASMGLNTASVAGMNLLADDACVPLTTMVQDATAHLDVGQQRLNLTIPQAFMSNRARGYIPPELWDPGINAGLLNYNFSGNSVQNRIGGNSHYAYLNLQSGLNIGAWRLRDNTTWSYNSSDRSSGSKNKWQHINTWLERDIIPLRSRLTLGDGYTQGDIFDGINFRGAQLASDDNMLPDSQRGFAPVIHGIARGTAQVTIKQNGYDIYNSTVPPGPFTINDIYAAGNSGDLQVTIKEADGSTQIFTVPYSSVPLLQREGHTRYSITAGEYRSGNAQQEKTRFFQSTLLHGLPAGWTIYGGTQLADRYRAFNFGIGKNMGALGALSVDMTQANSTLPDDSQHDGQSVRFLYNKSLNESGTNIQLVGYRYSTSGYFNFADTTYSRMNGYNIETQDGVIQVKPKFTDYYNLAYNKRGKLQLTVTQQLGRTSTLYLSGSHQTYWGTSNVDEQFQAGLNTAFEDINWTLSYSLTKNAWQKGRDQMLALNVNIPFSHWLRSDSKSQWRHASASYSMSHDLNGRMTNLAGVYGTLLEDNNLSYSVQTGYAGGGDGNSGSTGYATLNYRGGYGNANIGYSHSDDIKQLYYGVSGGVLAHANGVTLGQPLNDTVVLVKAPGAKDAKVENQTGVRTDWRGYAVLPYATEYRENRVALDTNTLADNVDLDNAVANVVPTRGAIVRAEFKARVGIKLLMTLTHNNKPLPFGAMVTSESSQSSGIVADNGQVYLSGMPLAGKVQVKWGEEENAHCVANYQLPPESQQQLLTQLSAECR
The test can be described thus: AUC.

Another test concerns the target FimH adhesin (Escherichia coli, UniProt P08191 22-300). The test can be described thus: AUC.

Usually stoichiometry N stands for a count of units in the complex or per binding partner.

FimH adhesin, sequence (P08191 22-300): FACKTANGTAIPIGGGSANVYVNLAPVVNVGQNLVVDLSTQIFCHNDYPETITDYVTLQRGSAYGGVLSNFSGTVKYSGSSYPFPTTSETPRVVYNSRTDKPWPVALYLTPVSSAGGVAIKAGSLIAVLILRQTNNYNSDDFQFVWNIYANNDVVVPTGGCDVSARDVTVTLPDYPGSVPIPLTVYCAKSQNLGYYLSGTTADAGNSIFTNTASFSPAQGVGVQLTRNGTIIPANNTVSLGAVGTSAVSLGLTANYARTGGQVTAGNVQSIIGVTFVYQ

B1: FimC chaperone (His-tagged, from pETS1001 fimCHisH) (natural protein)
chain: GVALGATRVIYPAGQKQEQLAVTNNDENSTYLIQSWVENADGVKDGRFIVTPPLFAMKGKKENTLRILDATNNQLPQDRESLFWMNVKAIPSMDKSKLTENTLQLAIISRIKLYYRPAKLALPPDQAAEKLRFRRSANSLTLINPTPYYLTVTELNAGTRVLENALVPPMGESTVKLPSDAGSNITYRTINDYGALTPKMTGVME
As for B1, the “stoichiometry N” value (in test [1]; with FimH adhesin) was 1 throughout.

The values above are taken from PMC3162478 (Nature, 2011).
